Results from the supplement of paper PMC10126150.
± gives the standard deviation of the averaged measurements.

Test system: ATP
Experiment: switch fluorescence ratio, 500 uM ATP over buffer (Cy3 cluster intensity, sum of 5 cycles each) (fold (ratio)); higher = stronger signal-on switching upon ATP binding; sequences stand for … in TCGTCGGCAGCGTCAGATGTGTATAAGAGACAGTTTTTTTTTTTTTTTTTTTTTTTTT…TC
Details: aptamer strand: ATP DNA aptamer (quencher-CACCTGGGGGAGTATTGCGGAGGAAGG + anchor), 100 nM annealed; ATP concentration: 500 uM
Summary of the method: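 The fluorescence ratio divides summed target-cycle Cy3 intensity by summed buffer-cycle Cy3 intensity for each cluster and is averaged per switch-domain sequence. Cy3-labelled switching-strand clusters on a modified Illumina MiSeq flow-cell were annealed to 100 nM quencher-labelled ATP aptamer, then imaged in selection buffer and again after 15 min with 500 uM ATP at 22 °C. Five such cycles were run, with NaOH stripping and re-annealing between them, and clusters outside 100-1000 RFU were excluded.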
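Also: ATP exposure 15 min at 22 °C before imaging.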

Row | Sequence | switch fluorescence ratio
1 | GGGGGCTAAA | 1.02 ± 0.017
2 | GGGGGCTGCA | 1.02 ± 0.032
3 | GGGGGCTGGG | 0.992 ± 0.025
4 | GGGGGCTTGG | 0.998 ± 0.032
5 | GGGGGGAAAC | 1 ± 0.022
6 | GGGGGGAAAT | 1.01 ± 0.057
7 | GGGGGGACGG | 0.969 ± 0.04
8 | GGGGGGACTT | 0.983 ± 0.029
9 | GGGGGGAGTC | 1.05 ± 0.028
10 | GGGGGGAGTG | 0.975 ± 0.029
11 | GGGGGGATTG | 0.99 ± 0.025
12 | GGGGGGCATC | 1.01 ± 0.024
13 | GGGGGGCGGT | 0.989 ± 0.015
14 | GGGGGGCTTA | 0.999 ± 0.018
15 | GGGGGGGAT | 1.02 ± 0.025
16 | GGGGGGGCCG | 0.993 ± 0.048
17 | GGGGGGGCGG | 1 ± 0.024
18 | GGGGGGGGAG | 1.01 ± 0.03
19 | GGGGGGGGCC | 0.998 ± 0.053
20 | GGGGGGGTAT | 1.01 ± 0.036
21 | GGGGGGGTGA | 1.01 ± 0.038
22 | GGGGGGGTT | 1 ± 0.025
23 | GGGGGGGTTT | 1.01 ± 0.074
24 | GGGGGGTAAG | 1 ± 0.021
25 | GGGGGGTCGC | 0.99 ± 0.041

Row | Sequence | switch fluorescence ratio
26 | GGGGGGTGG | 0.9912 ± 0.0055
27 | GGGGGGTGTC | 1.01 ± 0.038
28 | GGGGGTAAAA | 1.01 ± 0.029
29 | GGGGGTAAGT | 1.01 ± 0.02
30 | GGGGGTAATA | 0.999 ± 0.021
31 | GGGGGTAATG | 0.974 ± 0.035
32 | GGGGGTATAC | 1.28 ± 0.11
33 | GGGGGTCATC | 0.971 ± 0.011
34 | GGGGGTCCAG | 0.997 ± 0.022
35 | GGGGGTCCCT | 1.01 ± 0.015
36 | GGGGGTCCGC | 1.022 ± 0.0071
37 | GGGGGTCTGT | 0.972 ± 0.013
38 | GGGGGTGACG | 0.995 ± 0.11
39 | GGGGGTGGGC | 1.03 ± 0.035
40 | GGGGGTGTTT | 0.998 ± 0.037
41 | GGGGGTTACA | 1.005 ± 0.005
42 | GGGGGTTAGG | 1.01 ± 0.037
43 | GGGGGTTAGT | 1.01 ± 0.014
44 | GGGGGTTCCC | 0.9833 ± 0.0017
45 | GGGGGTTCCT | 1 ± 0.032
46 | GGGGGTTCGT | 0.98 ± 0.036
47 | GGGGGTTTAG | 1 ± 0.028
48 | GGGGGTTTGA | 1 ± 0.022
49 | GGGGGTTTGG | 0.991 ± 0.03
50 | GGGGTAAAAG | 1.08 ± 0.2

Row | Sequence | switch fluorescence ratio
51 | GGGGTAAACT | 1.01 ± 0.034
52 | GGGGTAAAGC | 1 ± 0.018
53 | GGGGTAACAG | 1.01 ± 0.044
54 | GGGGTAAGTG | 0.987 ± 0.04
55 | GGGGTACAGT | 0.9946 ± 0.0091
56 | GGGGTACGCT | 0.99523 ± 0.00067
57 | GGGGTACTGG | 1.01 ± 0.016
58 | GGGGTACTTT | 0.991 ± 0.026
59 | GGGGTAGCCC | 0.9977 ± 0.004
60 | GGGGTAGGAG | 1.03 ± 0.093
61 | GGGGTAGTAG | 0.979 ± 0.013
62 | GGGGTAGTTC | 1.01 ± 0.028
63 | GGGGTATTAT | 1 ± 0.028
64 | GGGGTATTTT | 0.997 ± 0.023
65 | GGGGTCAGTC | 0.9933 ± 0.0099
66 | GGGGTCAGTG | 0.998 ± 0.054
67 | GGGGTCCGTG | 0.993 ± 0.067
68 | GGGGTCCTAG | 0.9959 ± 0.0065
69 | GGGGTCCTGA | 1.01 ± 0.062
70 | GGGGTCGGTA | 0.9893 ± 0.0032
71 | GGGGTCTGCG | 1.03 ± 0.059
72 | GGGGTGAATC | 1.03 ± 0.045
73 | GGGGTGAGGA | 0.981 ± 0.037
74 | GGGGTGATAT | 1.58 ± 0.78
75 | GGGGTGATCG | 0.9842 ± 0.0077

Row | Sequence | switch fluorescence ratio
76 | GGGGTGCATG | 0.997 ± 0.054
77 | GGGGTGCCCG | 0.948 ± 0.018
78 | GGGGTGCGGT | 0.998 ± 0.017
79 | GGGGTGGAAA | 0.979 ± 0.018
80 | GGGGTGGCTA | 1.02 ± 0.019
81 | GGGGTGGTGT | 1.03 ± 0.027
82 | GGGGTGTACA | 0.969 ± 0.027
83 | GGGGTGTGAA | 1.03 ± 0.059
84 | GGGGTTAAAC | 1.04 ± 0.034
85 | GGGGTTAGAG | 0.991 ± 0.033
86 | GGGGTTATCA | 0.99 ± 0.014
87 | GGGGTTATTG | 0.986 ± 0.038
88 | GGGGTTCGTG | 0.975 ± 0.041
89 | GGGGTTGTGC | 0.971 ± 0.035
90 | GGGGTTTCGG | 1.02 ± 0.087
91 | GGGGTTTCTG | 0.986 ± 0.03
92 | GGGGTTTGG | 1.004 ± 0.0067
93 | GGGGTTTTCG | 1.01 ± 0.029
94 | GGGGTTTTG | 0.953 ± 0.0088
95 | GGGTAAATCG | 0.981 ± 0.068
96 | GGGTAAGCTT | 0.996 ± 0.016
97 | GGGTAAGGGC | 1.01 ± 0.031
98 | GGGTAATGAG | 1 ± 0.022
99 | GGGTAATGTG | 0.982 ± 0.029
100 | GGGTAATTAT | 1.01 ± 0.036

Row | Sequence | switch fluorescence ratio
101 | GGGTACAGTT | 1.01 ± 0.018
102 | GGGTACGTGG | 1.005 ± 0.009
103 | GGGTACGTGT | 0.989 ± 0.029
104 | GGGTACTCGC | 1.03 ± 0.065
105 | GGGTAGAAGT | 0.988 ± 0.023
106 | GGGTAGATGG | 0.9704 ± 0.0062
107 | GGGTAGCCGG | 1 ± 0.0042
108 | GGGTAGCTAG | 1.04 ± 0.022
109 | GGGTAGCTCT | 1.06 ± 0.076
110 | GGGTAGGCGT | 0.999 ± 0.062
111 | GGGTAGGGAC | 1.01 ± 0.026
112 | GGGTAGGGTA | 0.9864 ± 0.0082
113 | GGGTAGGGTT | 0.9832 ± 0.0077
114 | GGGTAGTTCA | 1.009 ± 0.0069
115 | GGGTAGTTGG | 0.998 ± 0.082
116 | GGGTATAATA | 1.01 ± 0.014
117 | GGGTATAGGG | 1.01 ± 0.037
118 | GGGTATATAG | 1.02 ± 0.036
119 | GGGTATCAG | 0.955 ± 0.03
120 | GGGTATCTCG | 0.9938 ± 0.0063
121 | GGGTATGCAT | 0.973 ± 0.011
122 | GGGTATGGGG | 1.01 ± 0.031
123 | GGGTATGTCC | 0.989 ± 0.026
124 | GGGTATTAGC | 0.982 ± 0.053
125 | GGGTATTGGA | 0.9828 ± 0.0047

Row | Sequence | switch fluorescence ratio
126 | GGGTATTGTT | 0.995 ± 0.024
127 | GGGTATTTGG | 0.987 ± 0.042
128 | GGGTCAAGGA | 0.995 ± 0.019
129 | GGGTCAATAT | 1.13 ± 0.032
130 | GGGTCAGGGC | 1.06 ± 0.062
131 | GGGTCAGGGG | 1.09 ± 0.077
132 | GGGTCAGTCC | 0.978 ± 0.019
133 | GGGTCAGTGG | 0.976 ± 0.035
134 | GGGTCCATCT | 1 ± 0.013
135 | GGGTCCGAGA | 1.31 ± 0.4
136 | GGGTCGCAGC | 0.998 ± 0.015
137 | GGGTCGTGCT | 1.03 ± 0.022
138 | GGGTCTAGAG | 1.0295 ± 0.00078
139 | GGGTCTAGCG | 1.01 ± 0.0065
140 | GGGTCTATCG | 0.989 ± 0.034
141 | GGGTCTGGGT | 0.984 ± 0.026
142 | GGGTGAAATA | 1.02 ± 0.019
143 | GGGTGAAGAT | 1.011 ± 0.0088
144 | GGGTGACAGG | 0.978 ± 0.017
145 | GGGTGAGCTT | 1.01 ± 0.029
146 | GGGTGATTGG | 0.993 ± 0.018
147 | GGGTGCACGG | 1.01 ± 0.021
148 | GGGTGCCCTA | 0.986 ± 0.051
149 | GGGTGCGCTG | 1.03 ± 0.014
150 | GGGTGGAAGT | 0.981 ± 0.023

Row | Sequence | switch fluorescence ratio
151 | GGGTGGATGG | 0.985 ± 0.024
152 | GGGTGGCCGT | 0.961 ± 0.029
153 | GGGTGGGAAT | 1.01 ± 0.043
154 | GGGTGGGACG | 1.23 ± 0.16
155 | GGGTGGGGAC | 0.975 ± 0.015
156 | GGGTGGGTTG | 1 ± 0.039
157 | GGGTGGGTTT | 1 ± 0.018
158 | GGGTGGTGGC | 0.964 ± 0.082
159 | GGGTGGTGTT | 1.01 ± 0.021
160 | GGGTGGTTGC | 0.99544 ± 4.2e-05
161 | GGGTGTACTG | 1 ± 0.0089
162 | GGGTGTAGAG | 1.05 ± 0.078
163 | GGGTGTGCCA | 1 ± 0.027
164 | GGGTGTGTTT | 0.985 ± 0.018
165 | GGGTGTTAGC | 1.02 ± 0.046
166 | GGGTGTTCTT | 0.997 ± 0.034
167 | GGGTGTTGAC | 0.993 ± 0.018
168 | GGGTTAACCT | 1.06 ± 0.075
169 | GGGTTAAGCT | 0.989 ± 0.029
170 | GGGTTAAGGA | 0.989 ± 0.036
171 | GGGTTAAGTC | 0.983 ± 0.028
172 | GGGTTAATGC | 1.03 ± 0.047
173 | GGGTTACGAT | 0.994 ± 0.021
174 | GGGTTAGAAG | 0.9797 ± 0.008
175 | GGGTTAGACT | 1.07 ± 0.086

Row | Sequence | switch fluorescence ratio
176 | GGGTTAGCCT | 0.999 ± 0.011
177 | GGGTTAGGTA | 0.96 ± 0.053
178 | GGGTTATACG | 1.04 ± 0.031
179 | GGGTTATCCT | 1.07 ± 0.047
180 | GGGTTATGGA | 0.971 ± 0.021
181 | GGGTTATTCT | 1.01 ± 0.049
182 | GGGTTCACGG | 1 ± 0.014
183 | GGGTTCCGTG | 1.01 ± 0.024
184 | GGGTTCGGGG | 1 ± 0.056
185 | GGGTTCTGTA | 0.985 ± 0.03
186 | GGGTTCTTAT | 0.992 ± 0.027
187 | GGGTTGAAAA | 0.999 ± 0.039
188 | GGGTTGAATG | 0.978 ± 0.014
189 | GGGTTGACTT | 1.015 ± 0.0018
190 | GGGTTGAGAG | 0.985 ± 0.026
191 | GGGTTGATTA | 0.9898 ± 0.0084
192 | GGGTTGCAGC | 0.992 ± 0.032
193 | GGGTTGCCGA | 1.09 ± 0.19
194 | GGGTTGGAAA | 0.989 ± 0.03
195 | GGGTTGGAGG | 0.995 ± 0.021
196 | GGGTTGTGTA | 1 ± 0.014
197 | GGGTTGTGTT | 0.978 ± 0.013
198 | GGGTTTACTA | 0.9552 ± 0.0018
199 | GGGTTTATAA | 0.987 ± 0.023
200 | GGGTTTATAT | 0.997 ± 0.022
